How the values were obtained:
[1] = biological target: HLA-DR1 with a His→Asn substitution at position β81 (human)
[2] = biological target: HLA-DR1 with a His→Asn substitution at position β81 (human); experiment: fluorescence polarisation

Question: “HA peptide P1 L (from UniProt P03437 322-334)” was tested. Which Kd [1] did it give?
Answer: 67.9 nM

Question: Which Kd [1] does the source give for “HA peptide P1 V (from UniProt P03437 322-334)” here?
Answer: 89.4 nM

Question: How did the Kd [1] turn out when “HA peptide P1,9 LA (from UniProt P03437 322-334)” was run?
Answer: 206 nM

Question: For “HA peptide P1,9 LS (from UniProt P03437 322-334)”, which Kd [1] is on record?
Answer: 1880 nM

Question: With “HA peptide P1,9 VA (from UniProt P03437 322-334)” as the substance, how does the Kd [1] read?
Answer: 739 nM

Question: How did the Kd [1] turn out when “HA peptide P1,9 VS (from UniProt P03437 322-334)” was run?
Answer: 8170 nM

Question: How did the Kd [1] turn out when “HA peptide P9 A (from UniProt P03437 322-334)” was run?
Answer: 126 nM

Question: Which Kd [1] does the source give for “HA peptide P9 S (from UniProt P03437 322-334)” here?
Answer: 130 nM

Question: With “fluorescein-labelled HA peptide P1 L (from UniProt P03437 322-334)” as the substance, how does the t1/2 [2] read?
Answer: 55.6 h

Question: How did the t1/2 [2] turn out when “fluorescein-labelled HA peptide P1 V (from UniProt P03437 322-334)” was run?
Answer: 47.9 h

Question: With “fluorescein-labelled HA peptide P1,9 LA (from UniProt P03437 322-334)” as the substance, how does the t1/2 [2] read?
Answer: 34 h

Question: “fluorescein-labelled HA peptide P1,9 LS (from UniProt P03437 322-334)” was tested. Which t1/2 [2] did it give?
Answer: 5.93 h

Question: With “fluorescein-labelled HA peptide P1,9 VA (from UniProt P03437 322-334)” as the substance, how does the t1/2 [2] read?
Answer: 14.4 h

Question: For “fluorescein-labelled HA peptide P1,9 VS (from UniProt P03437 322-334)”, which t1/2 [2] is on record?
Answer: 1.65 h

Question: “fluorescein-labelled HA peptide P9 A (from UniProt P03437 322-334)” was tested. Which t1/2 [2] did it give?
Answer: 43.6 h

Question: With “fluorescein-labelled HA peptide P9 S (from UniProt P03437 322-334)” as the substance, how does the t1/2 [2] read?
Answer: 19.3 h

From article PMC3349339 (Journal of Molecular Biology, 2012)
